Measurements: patent publication US20230053258A1 (RAMOT AT TEL AVIV UNIVERSITY, published 2023)

B1: B1 Inclonal IgG (human IgG1) (antibody, V domains shown)
VH: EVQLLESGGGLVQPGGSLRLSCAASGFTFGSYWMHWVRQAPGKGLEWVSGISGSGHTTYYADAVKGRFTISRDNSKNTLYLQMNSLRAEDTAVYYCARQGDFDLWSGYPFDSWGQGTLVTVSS
VL: DIVLTQSPGTLSLSPGERATLSCRASQSVSSHLAWYQQKPGQAPRLLIYDASNRATGIPDRFSGSGSGTDFTLTISRLEPEDFAVYYCQQYDSYPYTFGQGTKLDIK
notes: also called B1 IgG
B2: A9 Inclonal IgG (human IgG1) (antibody, V domains shown)
VH: EVQLLESGGGLVQPGGSLRLSCAASGFTFRSYGMHWVRQAPGRGLEWVSAINSNGDSTYYPDTVKDRFTISRDNSKNTLYLQMNSLRAEDTAVYYCARADYYDSTGYYYHGLDLWGQGTLVTVSS
VL: DIVLTQPPSASGTPGQRVTISCSGSRDNIGKNYVSWYQQLPGTAPKLLIYRNNQRPSGVPDRFSGSKSGTSASLAISGLRSEDEADYYCSSYAGSSVIFGGGTKVTVL
notes: also called A9 IgG; IgG A9

Biological target: T1, recombinant human wild type insulin degrading enzyme (WT rhIDE) (human, UniProt P14735 42-1019)
T1 construct: also called WT IDE; active IDE
Assay: ELISA on coated WT rhIDE

Row | Binder | EC50 [nM]
1 | B1 | ~1
2 | B2 | ~1
